Columns and labels:
[1] = biological target: KDEL receptor (KDEL‐R) (mouse (endogenous in DRG neurons)) (UniProt Q99JH8)
[2] = biological target: KDEL receptor (KDEL‐R) (mouse (endogenous in DRG neurons)) (UniProt Q99JH8); remark: listed apart in the source
[3] = biological target: KDEL receptor (KDEL‐R) (mouse (endogenous in DRG neurons)) (UniProt Q99JH8); remark: listed apart in the source
[4] = biological target: KDEL receptor (KDEL‐R) (mouse (endogenous in DRG neurons)) (UniProt Q99JH8); remark: listed apart in the source
[5] = biological target: KDEL receptor (KDEL‐R) (mouse (endogenous in DRG neurons)) (UniProt Q99JH8); remark: listed apart in the source

UniProt Q99JH8, sequence (Q99JH8 whole entry): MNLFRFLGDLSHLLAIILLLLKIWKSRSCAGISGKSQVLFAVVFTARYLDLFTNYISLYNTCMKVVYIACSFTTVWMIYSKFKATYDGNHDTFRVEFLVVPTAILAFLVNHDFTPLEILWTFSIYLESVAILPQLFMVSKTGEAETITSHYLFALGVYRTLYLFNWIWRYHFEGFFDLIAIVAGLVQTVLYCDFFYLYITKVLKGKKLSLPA

CDNF‐ΔKTEL (CDNF without the last four residues KTEL) (domain or fragment)
viable cells by LDH release, DRG explants under trophic deprivation, CDNF-ΔKTEL (Figure 3E) [1]: 61% | neurite length in dissociated DRG cell cultures, CDNF-ΔKTEL 18 μg/mL, 3 days (Figure 7B) [2]: < 200 μm | neurite length of DRG explants after 72 h (Figure 1B) [3]: 200 μm | neurite length of DRG explants after NGF deprivation, CDNF-ΔKTEL 18 μg/mL for 48 h (Figure 3B) [4]: 200 μm | neuritic area of DRG explants after 72 h, CDNF-ΔKTEL 1.8 and 18 μg/mL (Figure 1C) [5]: 2.9e+06 μm^2

cerebral dopamine neurotrophic factor (CDNF) (from UniProt Q49AH0 25-187) (ligand)
viable cells by LDH release, DRG explants under trophic deprivation, CDNF 18 μg/mL (Figure 3E) [1]: 75% | neurite length in dissociated DRG cell cultures, CDNF 18 μg/mL, 3 days (Figure 7B) [2]: 390 μm | neurite length of DRG explants after 72 h, CDNF 1.8 and 18 μg/mL (Figure 1B) [3]: 600 μm | neurite length of DRG explants after NGF deprivation, CDNF 18 μg/mL for 48 h (Figure 3B) [4]: 500 μm | neuritic area of DRG explants after 72 h, CDNF 18 μg/mL (Figure 1C) [5]: 5.2e+06 μm^2
